The values below come from patent US20250277003A1.

Assay [1] deals with SARS-CoV-2 RBD glycan-masked mutant GM9 (SARS-CoV-2) (UniProt P0DTC2). In words: ELISA, AUC relative to RBD WT.
Assay [2] addresses SARS-CoV-2 RBD glycan-masked mutant GM14 (SARS-CoV-2) (UniProt P0DTC2). Nature of the assay: ELISA, AUC relative to RBD WT. In general terms: In an ELISA, binding on a coated surface is turned into a signal by an enzyme label.

On to mAb CR3022 (antibody), for which the values for the %AUC in assay [1] and in assay [2] were 120% and 72.9%, respectively.

On to mAb CB6 (antibody), for which the %AUC in assay [1] is 7.2%; in assay [2], 7.8%.

For mAb C002 (antibody), the figures for the %AUC in assay [1] and in assay [2] were 51.3% and 10.2%, respectively.

As to mAb EY6A (antibody), the %AUC in assay [1] is 115%; in assay [2] it was 94.5%.

As to mAb S309 (antibody), the %AUC worked out at 114% in assay [1] and 83.4% in assay [2].
